The target in data set [1] is T1, alpha-thrombin (UniProt P00734;P00734 328-363;364-622). The experiment in a line: flow cytometry, sandwich on T27-AR-captured thrombin. (In general: A flow cytometer gives signals particle by particle.)
Data set [2] concerns the target streptavidin (UniProt P22629 25-183). The experiment in a line: flow cytometry, SA-488 capture on CEM cells.
Data set [3] concerns the target T1, alpha-thrombin. The experiment in a line: flow cytometry, thrombin capture on CEM cells, T-15-biotin/SA-488 read-out.

The text below walks through data of paper PMC3840377.

Chain of streptavidin (P22629 25-183): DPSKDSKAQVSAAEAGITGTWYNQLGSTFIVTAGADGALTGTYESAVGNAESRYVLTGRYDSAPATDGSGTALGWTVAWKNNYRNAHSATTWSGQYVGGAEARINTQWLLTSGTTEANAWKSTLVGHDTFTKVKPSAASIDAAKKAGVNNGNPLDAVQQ

B1: T-15 (ssDNA)
DNA: GGTTGGTGTGGTTGG
On to B1, for which the binding result in data set [1] is “binds”.

B2: SA-AR (ssDNA)
DNA: TTTTTTTATTGACCGCTGTGTGACGCAACACTCAAT
modifications: 5' diacyllipid
For the molecule B2, in data set [2], the binding result was “binds”.

B3: T27-AR (ssDNA)
DNA: TTTTTTTGTCCGTGGTAGGGCAGGTTGGGGTGAC
modifications: 5' diacyllipid
As to B3, the binding result in data set [3] was “binds”.
